Results as given in patent publication US20170088602A1 (Bristol-Myers Squibb, published 2017).
Read-outs that look alike come from different tables or passages of the source.

Key:
[1] = molecular target: T1, human myostatin (mature, recombinant; R&D Systems) (human, UniProt O14793 267-375); test: SPR format A, 25C
T1 construct: biotinylated in the mRNA display selection; also called GDF-8; mature myostatin
T1 sequence: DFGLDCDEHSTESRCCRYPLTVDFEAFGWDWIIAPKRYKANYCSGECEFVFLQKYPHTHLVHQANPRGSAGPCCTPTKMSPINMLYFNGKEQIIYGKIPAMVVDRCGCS
Description: (§1) Anti-human Fc antibody (Biacore/GE) was immobilized on a Biacore CM5 chip via NHS/EDC coupling according to the manufacturer's instructions. […] A concentration range of anti-myostatin Adnectin was applied across all flow cells in HBSP running buffer. Regeneration of the chip surface between cycles was accomplished with two 30 second pulses of 3M MgCl₂. Kinetic traces of reference-subtracted sensorgrams were fit to a 1:1 binding model using Biaevaluation software.

[2] = molecular target: T2, human BMP-11 (GDF-11; R&D Systems) (human, UniProt O95390 299-407); test: SPR format A, 25C
T2 sequence (looked up): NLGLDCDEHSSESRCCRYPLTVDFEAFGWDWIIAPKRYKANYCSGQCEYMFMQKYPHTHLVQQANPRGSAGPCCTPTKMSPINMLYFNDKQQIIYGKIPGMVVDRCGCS
Description: as §1

[3] = molecular target: T1, human myostatin (mature, recombinant; …); test: cell-based or functional assay
[4] = molecular target: T2, human BMP-11 (GDF-11; R&D Systems); test: cell-based or functional assay
[5] = molecular target: T3, human Activin A (R&D Systems) (human, UniProt P08476 311-426); test: cell-based or functional assay
T3 sequence (looked up): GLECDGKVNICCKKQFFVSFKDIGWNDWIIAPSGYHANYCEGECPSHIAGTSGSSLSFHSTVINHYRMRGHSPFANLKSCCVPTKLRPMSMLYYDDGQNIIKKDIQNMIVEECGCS

[6] = molecular target: T1, human myostatin (mature, recombinant; …); test: cell-based or functional assay; remark: listed apart in the source
[7] = molecular target: T1, human myostatin (mature, recombinant; …); test: cell-based or functional assay; remark: listed apart in the source
[8] = molecular target: T2, human BMP-11 (GDF-11; R&D Systems); test: cell-based or functional assay; remark: listed apart in the source
[9] = molecular target: T3, human Activin A (R&D Systems); test: cell-based or functional assay; remark: listed apart in the source
[10] = molecular target: T1, human myostatin (mature, recombinant; …); test: competitive HTRF (1889E01/myostatin/ActRIIb-Fc sandwich)
Description: An HTRF assay was used to measure the binding affinities of anti-myostatin Adnectins to myostatin. […] The Eu-W 1024 labeled Streptavidin is used to bind biotinylated 1889E01. […] In the presence of a competitive Adnectin, the HTRF signal decreases.

[11] = molecular target: T1, human myostatin (mature, recombinant; …); test: cell-based or functional assay; remark: listed apart in the source
[12] = molecular target: T1, human myostatin (mature, recombinant; …); test: competitive HTRF, alanine scan

B1: 2522_C09 (designed binder)
chain: MGVSDVPRDLEVVAATPTSLLISWEVPRGLARYYRITYGETGGNSPVQEFTVLGRGSTATISGLKPGVDYTITVYAVTVYRDGPLLLAPISINYRTEIDKPSQHHHHHH
- Kd [1]: 0.51 nM
- Kd [2]: 0.45 nM
- ARE-luciferase IC50 [3]: 0.06 nM
- ARE-luciferase IC50 [4]: 1.6 nM
- ARE-luciferase IC50 [5]: 1000 nM
- pSmad2 IC50, 12-point [6]: 0.13 nM

B2: ATI-1106 [40K 2-branch PEG] (designed binder)
chain: MGVSDVPRDLEVVAATPTSLLISWVSPRGRARYYRITYGETGGNSPVQEFTVPGRGSTATISGLKPGVDYTITVYAVTIYRDGMSHHDPISINYRTGSGCHHHHHH
modifications: 40K 2-branch PEG on the Cys of the GSGC tail
- ARE-luciferase IC50 [7]: 177 nM
- ARE-luciferase IC50 [8]: 1410 nM
- ARE-luciferase IC50 [9]: > 2000 nM

B3: ATI-1266 [40K 2-branch PEG] (designed binder)
chain: MGVSDVPRDLEVVAATPTSLLISWTLPHAGRAHYYRITYGETGGNSPVQEFTVPGRGVTATISGLKPGVDYTITVYAVTVTTTSVILYKPISINYRTEGSGCHHHHHH
modifications: 40K 2-branch PEG on the Cys of the EGSGC tail
notes: cysteine mutant of 2525_D02
- IC50 [10]: 0.21 nM
- Kd [1]: 0.76 nM
- Kd [2]: 2.57 nM
- ARE-luciferase IC50 [7]: 0.12 nM
- ARE-luciferase IC50 [8]: 0.89 nM
- ARE-luciferase IC50 [9]: 2000 nM

B4: ATI-1341 [20K Bis-PEG] (designed binder)
chain: MGVSDVPRDLEVVAATPTSLLISWTLPHAGRAHYYRITYGETGGNSPVQEFTVPGRGVTATISGLKPGVDYTITVYAVTVTTTKVIHYKPISINYRTEGSGCHHHHHH
modifications: two Adnectins joined through their tail Cys to the two ends of a 20 kDa bis-PEG
notes: bivalent PEGylated form of the 2987_H07 cysteine mutant
- IC50 [10]: 0.13 nM
- ARE-luciferase IC50 [7]: 0.03 nM
- ARE-luciferase IC50 [8]: 0.14 nM
- ARE-luciferase IC50 [9]: 14 nM

B5: ATI-1379 [40K 2-branch PEG] (designed binder)
chain: MGVSDVPRDLEVVAATPTSLLISWSLPHQGKANYYRITYGETGGNSPVQEFTVPGRGVTATISGLKPGVDYTITVYAVTVTDTGYLKYKPISINYRTEGSGCHHHHHH
modifications: 40K 2-branch PEG on the Cys of the EGSGC tail
- IC50 [10]: 0.28 nM
- Kd [1]: 9.5 nM
- Kd [2]: 21.6 nM
- ARE-luciferase IC50 [7]: 0.1 nM
- ARE-luciferase IC50 [8]: 4.3 nM
- ARE-luciferase IC50 [9]: > 1000 nM

B6: ATI-1378 [40K 2-branch PEG] (designed binder)
chain: MGVSDVPRDLEVVAATPTSLLISWSLPNPGNAHYYRITYGETGGNSPVQEFTVPGRGVTATISGLKPGVDYTITVYAVTVTDTGFITYKPISINYRTEGSGCHHHHHH
modifications: 40K 2-branch PEG on the Cys of the EGSGC tail
notes: cysteine mutant of 3146_A08
- IC50 [10]: 1.29 nM
- Kd [1]: 14.4 nM
- Kd [2]: 59.6 nM
- ARE-luciferase IC50 [7]: 0.29 nM
- ARE-luciferase IC50 [8]: 5.4 nM
- ARE-luciferase IC50 [9]: > 1000 nM

B7: 3116_A06 (designed binder)
chain: MGVSDVPRDLEVVAATPTSLLISWSLPHQGKANYYRITYGETGGNSPVQEFTVPGRGVTATISGLKPGVDYTITVYAVTVTDTGYLKYKPISINYRTEIDKPSQHHHHHH
notes: also called WT parent
- Myostatin ARE-luc IC50 [11]: 0.6 nM
- IC50 [10]: 0.15 nM
- ARE-luciferase IC50 [3]: 0.14 nM
- ARE-luciferase IC50 [4]: 13 nM
- ARE-luciferase IC50 [5]: > 1000 nM
- IC50 [12]: 0.3 nM
- pSmad2 IC50, 4-point [6]: 0.27 nM

B8: 3116_A06 G55A (designed binder)
chain: MGVSDVPRDLEVVAATPTSLLISWSLPHQGKANYYRITYGETGGNSPVQEFTVPARGVTATISGLKPGVDYTITVYAVTVTDTGYLKYKPISINYRTEIDKPSQHHHHHH
- Myostatin ARE-luc IC50 [11]: > 100 nM
- IC50 [12]: > 100 nM

B9: 3116_A06 T83A (designed binder)
chain: MGVSDVPRDLEVVAATPTSLLISWSLPHQGKANYYRITYGETGGNSPVQEFTVPGRGVTATISGLKPGVDYTITVYAVTVTDAGYLKYKPISINYRTEIDKPSQHHHHHH
- Myostatin ARE-luc IC50 [11]: 1.8 nM
- IC50 [12]: 1.3 nM

B10: 3116_A06 K87A (designed binder)
chain: MGVSDVPRDLEVVAATPTSLLISWSLPHQGKANYYRITYGETGGNSPVQEFTVPGRGVTATISGLKPGVDYTITVYAVTVTDTGYLAYKPISINYRTEIDKPSQHHHHHH
- Myostatin ARE-luc IC50 [11]: 2 nM
- IC50 [12]: 0.8 nM

B11: 3116_A06 K31A (designed binder)
chain: MGVSDVPRDLEVVAATPTSLLISWSLPHQGAANYYRITYGETGGNSPVQEFTVPGRGVTATISGLKPGVDYTITVYAVTVTDTGYLKYKPISINYRTEIDKPSQHHHHHH
- Myostatin ARE-luc IC50 [11]: 2.2 nM
- IC50 [12]: 0.6 nM

B12: 3116_A06 S25A (designed binder)
chain: MGVSDVPRDLEVVAATPTSLLISWALPHQGKANYYRITYGETGGNSPVQEFTVPGRGVTATISGLKPGVDYTITVYAVTVTDTGYLKYKPISINYRTEIDKPSQHHHHHH
- Myostatin ARE-luc IC50 [11]: 2.9 nM
- IC50 [12]: 0.8 nM

B13: 3116_A06 K89A (designed binder)
chain: MGVSDVPRDLEVVAATPTSLLISWSLPHQGKANYYRITYGETGGNSPVQEFTVPGRGVTATISGLKPGVDYTITVYAVTVTDTGYLKYAPISINYRTEIDKPSQHHHHHH
- Myostatin ARE-luc IC50 [11]: 1.6 nM
- IC50 [12]: 0.7 nM

B14: 3116_A06 D82A (designed binder)
chain: MGVSDVPRDLEVVAATPTSLLISWSLPHQGKANYYRITYGETGGNSPVQEFTVPGRGVTATISGLKPGVDYTITVYAVTVTATGYLKYKPISINYRTEIDKPSQHHHHHH
- Myostatin ARE-luc IC50 [11]: 1.8 nM
- IC50 [12]: 0.8 nM

B15: 3116_A06 Q29A (designed binder)
chain: MGVSDVPRDLEVVAATPTSLLISWSLPHAGKANYYRITYGETGGNSPVQEFTVPGRGVTATISGLKPGVDYTITVYAVTVTDTGYLKYKPISINYRTEIDKPSQHHHHHH
- Myostatin ARE-luc IC50 [11]: 1.5 nM
- IC50 [12]: 0.7 nM

B16: 3116_A06 G84A (designed binder)
chain: MGVSDVPRDLEVVAATPTSLLISWSLPHQGKANYYRITYGETGGNSPVQEFTVPGRGVTATISGLKPGVDYTITVYAVTVTDTAYLKYKPISINYRTEIDKPSQHHHHHH
- Myostatin ARE-luc IC50 [11]: 3.6 nM
- IC50 [12]: 2 nM

B17: 3116_A06 V58A (designed binder)
chain: MGVSDVPRDLEVVAATPTSLLISWSLPHQGKANYYRITYGETGGNSPVQEFTVPGRGATATISGLKPGVDYTITVYAVTVTDTGYLKYKPISINYRTEIDKPSQHHHHHH
- Myostatin ARE-luc IC50 [11]: 3.3 nM
- IC50 [12]: 1.6 nM

B18: 3116_A06 G57A (designed binder)
chain: MGVSDVPRDLEVVAATPTSLLISWSLPHQGKANYYRITYGETGGNSPVQEFTVPGRAVTATISGLKPGVDYTITVYAVTVTDTGYLKYKPISINYRTEIDKPSQHHHHHH
- Myostatin ARE-luc IC50 [11]: > 100 nM
- IC50 [12]: > 100 nM

B19: 2525_F07 (designed binder)
chain: MGVSDVPRDLEVVAATPTSLLISWSLPYAAHMNYYRITYGETGGNSPVQEFTVPGRGVTATISGLKPGVDYTITVYAVTLTRSQVIHYMPISINYRTEIDKPSQHHHHHH
- Kd [1]: 0.79 nM
- Kd [2]: 0.97 nM
- ARE-luciferase IC50 [3]: 0.13 nM
- ARE-luciferase IC50 [4]: 3.4 nM
- ARE-luciferase IC50 [5]: > 1000 nM
- pSmad2 IC50, 12-point [6]: 0.27 nM
